From patent US20190055322A1
Several values for one entry are separate records, joined by “and”; a condition that tells them apart may be missing. Equal entries are not always repeated.

Tests used:
[1] = target: PcrV of P. aeruginosa strain PA103 (on TTSS-induced bacteria) (Pseudomonas aeruginosa strain PA103); test: cell-based or functional assay
[2] = target: different PcrV variants and reference strain PAO1 (23 PcrV sequence variants, GST-PcrV-His6)

Binder	% inhibition in P3X63 cytotoxicity assay, extract 1/150 [1]	EC50 [2]
Nanobody 064 (13F07-40GS-7C10) (VHH) EVQLVESGGGLVQAGGSLRLSCAASGNTFSTNPMYWYRQAEGKQRELVASISSRGITNYADSVRGRFSISRDNTKDTVYLQMNSLKPEDTAVYYCRLASLSSGTVYWGKGTLVTVSSGGGGSGGGGSGGGGSGGGGSGGGGSGGGGSGGGGSGGGGSEVQLVESGGGLVQAGGSLRLSCTASGRTLSSYTMGWFRQAPGTEREFVAAMTRSGFNTYYADSVKGRFTISRDSTENTMALQMSSLKPEDTAVYYCTAGRGLTSYRADYWGQGTLVTVSS	74%	–
3E10-40GS-2B10 (VHH) EVQLVESGGGLVQAGGSLRLSCTASGHTFSSYTMGWFRQAPGKEREFVAAMTRSGFNTHYSDSVKGRFTISRDNTSRDNTKITMALQMNSLKPEDTAVYYCTTGRGLTSYVANFWGQGTQVTVSSGGGGSGGGGSGGGGSGGGGSGGGGSGGGGSGGGGSGGGGSEVQLVESGGGLVQPGGSLRLSCAASGSIFSINNMGWYRQAPGKQRELVTVVTSNLITTYADSVKGRFTISRDNAKNTVYLQMNSLKPEDTAVYYCNAWARSVGSVPYSQFWGQGTLVTVSS	52%	–
Nanobody 115 (11B09-40GS-13F07) (VHH) EVQLVESGGGLVQAGGSLRLSCAASRLTFNHYNMGWFRQAPGKERERVAEVTWSGDKIYYVDSVKGRFTISRDNTPNPVYLYLQMNSLKPEDTAVYYCATAPRGLPYANGYWGQGTLVTVSSGGGGSGGGGSGGGGSGGGGSGGGGSGGGGSGGGGSGGGGSEVQLVESGGGLVQAGGSLRLSCAASGNTFSTNPMYWYRQAEGKQRELVASISSRGITNYADSVRGRFSISRDNTKDTVYLQMNSLKPEDTAVYYCRLASLSSGTVYWGKGTLVTVSS	82%	–
Nanobody 083 (7C10-40GS-11B09) (VHH) EVQLVESGGGLVQAGGSLRLSCTASGRTLSSYTMGWFRQAPGTEREFVAAMTRSGFNTYYADSVKGRFTISRDSTENTMALQMSSLKPEDTAVYYCTAGRGLTSYRADYWGQGTLVTVSSGGGGSGGGGSGGGGSGGGGSGGGGSGGGGSGGGGSGGGGSEVQLVESGGGLVQAGGSLRLSCAASRLTFNHYNMGWFRQAPGKERERVAEVTWSGDKIYYVDSVKGRFTISRDNTPNPVYLYLQMNSLKPEDTAVYYCATAPRGLPYANGYWGQGTLVTVSS	61%	–
5E02-40GS-1E11 (VHH) EVQLVESGGGLVQPGGSLRLSCAASGITLDSIAICWFRQAPGKEREGVSCSRGSDGSTYYADSVKGRFTISRVNAKNTVYLQMNSLKPEDTAVYYCAAAPSIFYSGGYFPSGMDYWGKGTQVTVSSGGGGSGGGGSGGGGSGGGGSGGGGSGGGGSGGGGSGGGGSEVQLVESGGGLVQPGGSLRLSCAASGSTRSVNPMAWFRQAPGRQREWVATISRSGYATYADSVKGRFTISGDNAKSSVYLQMNSLKPEDTAVYYCVTGTYWGQGTLVTVSS	60%	–
4G10-40GS-7C10 (VHH) EVQLVESGGGLVQAGGSLRLSCVISEDGVRNYDMGWFRQAPGKEREFVATINWSGGSTNYADSVKGRFTVSRDNAKNTMYLQMDSLKPEDTAVYYCVAAGFYNNYLRTAPNDWNDWGQGTQVTVSSGGGGSGGGGSGGGGSGGGGSGGGGSGGGGSGGGGSGGGGSEVQLVESGGGLVQAGGSLRLSCTASGRTLSSYTMGWFRQAPGTEREFVAAMTRSGFNTYYADSVKGRFTISRDSTENTMALQMSSLKPEDTAVYYCTAGRGLTSYRADYWGQGTLVTVSS	81%	–
Nanobody 272 (11B09-40GS-10C05) (VHH) EVQLVESGGGLVQAGGSLRLSCAASRLTFNHYNMGWFRQAPGKERERVAEVTWSGDKIYYVDSVKGRFTISRDNTPNPVYLYLQMNSLKPEDTAVYYCATAPRGLPYANGYWGQGTLVTVSSGGGGSGGGGSGGGGSGGGGSGGGGSGGGGSGGGGSGGGGSEVQLVESGGGLVQPGGSLRLSCAASGSIFSINTMGWYRQAPGKQRDLVASITMNQVPNYADSVQGRFTISRDNVRNTVHLQMNAVKPEDTADYFCNAWVRSSGASPYTNYWGQGTLVTVSS	66%	–
3E10-40GS-5H01 (VHH) EVQLVESGGGLVQAGGSLRLSCTASGHTFSSYTMGWFRQAPGKEREFVAAMTRSGFNTHYSDSVKGRFTISRDNTSRDNTKITMALQMNSLKPEDTAVYYCTTGRGLTSYVANFWGQGTQVTVSSGGGGSGGGGSGGGGSGGGGSGGGGSGGGGSGGGGSGGGGSEVQLVESGGGLVQPGGSLRLSCAASGSTLDYYAIGWFRQAPGKEREGVSCTSNSGSTYYGGSVKGRFTASRDNAKNTVYLQMNSLRPEDTAVYYCVATIGCATLGGTLDVQRYYYRGQGTQVTVSS	85%	–
Nanobody 260 (1E11-40GS-2B10) (VHH) EVQLVESGGGLVQPGGSLRLSCAASGSTRSVNPMAWFRQAPGRQREWVATISRSGYATYADSVKGRFTISGDNAKSSVYLQMNSLKPEDTAVYYCVTGTYWGQGTLVTVSSGGGGSGGGGSGGGGSGGGGSGGGGSGGGGSGGGGSGGGGSEVQLVESGGGLVQPGGSLRLSCAASGSIFSINNMGWYRQAPGKQRELVTVVTSNLITTYADSVKGRFTISRDNAKNTVYLQMNSLKPEDTAVYYCNAWARSVGSVPYSQFWGQGTLVTVSS	57%	–
Nanobody 087 (1E11-40GS-7C10) (VHH) EVQLVESGGGLVQPGGSLRLSCAASGSTRSVNPMAWFRQAPGRQREWVATISRSGYATYADSVKGRFTISGDNAKSSVYLQMNSLKPEDTAVYYCVTGTYWGQGTLVTVSSGGGGSGGGGSGGGGSGGGGSGGGGSGGGGSGGGGSGGGGSEVQLVESGGGLVQAGGSLRLSCTASGRTLSSYTMGWFRQAPGTEREFVAAMTRSGFNTYYADSVKGRFTISRDSTENTMALQMSSLKPEDTAVYYCTAGRGLTSYRADYWGQGTLVTVSS	49%	–
5E02-40GS-14E10 (VHH) EVQLVESGGGLVQPGGSLRLSCAASGITLDSIAICWFRQAPGKEREGVSCSRGSDGSTYYADSVKGRFTISRVNAKNTVYLQMNSLKPEDTAVYYCAAAPSIFYSGGYFPSGMDYWGKGTQVTVSSGGGGSGGGGSGGGGSGGGGSGGGGSGGGGSGGGGSGGGGSEVQLVESGGGLVQPGGSLRLSCAASGRIFSINTMGWYRQAPGKQRELVAGVTINAITNYADSVKGRFTISRDNAKNTVWLQMNSLKPEDTAVYYCHAWARSSGSAPYSQNWGQGTQVTVSS	48%	–
Nanobody 302 (5H01-40GS-7C10) (VHH) EVQLVESGGGLVQPGGSLRLSCAASGSTLDYYAIGWFRQAPGKEREGVSCTSNSGSTYYGGSVKGRFTASRDNAKNTVYLQMNSLRPEDTAVYYCVATIGCATLGGTLDVQRYYYRGQGTLVTVSSGGGGSGGGGSGGGGSGGGGSGGGGSGGGGSGGGGSGGGGSEVQLVESGGGLVQAGGSLRLSCTASGRTLSSYTMGWFRQAPGTEREFVAAMTRSGFNTYYADSVKGRFTISRDSTENTMALQMSSLKPEDTAVYYCTAGRGLTSYRADYWGQGTLVTVSS	68%	–
1E11-40GS-4G10 (VHH) EVQLVESGGGLVQPGGSLRLSCAASGSTRSVNPMAWFRQAPGRQREWVATISRSGYATYADSVKGRFTISGDNAKSSVYLQMNSLKPEDTAVYYCVTGTYWGQGTLVTVSSGGGGSGGGGSGGGGSGGGGSGGGGSGGGGSGGGGSGGGGSEVQLVESGGGLVQAGGSLRLSCVISEDGVRNYDMGWFRQAPGKEREFVATINWSGGSTNYADSVKGRFTVSRDNAKNTMYLQMDSLKPEDTAVYYCVAAGFYNNYLRTAPNDWNDWGQGTQVTVSS	67%	–
Nanobody 256 (13F07-40GS-5H01) (VHH) EVQLVESGGGLVQAGGSLRLSCAASGNTFSTNPMYWYRQAEGKQRELVASISSRGITNYADSVRGRFSISRDNTKDTVYLQMNSLKPEDTAVYYCRLASLSSGTVYWGKGTLVTVSSGGGGSGGGGSGGGGSGGGGSGGGGSGGGGSGGGGSGGGGSEVQLVESGGGLVQPGGSLRLSCAASGSTLDYYAIGWFRQAPGKEREGVSCTSNSGSTYYGGSVKGRFTASRDNAKNTVYLQMNSLRPEDTAVYYCVATIGCATLGGTLDVQRYYYRGQGTLVTVSS	–	0.07 nM and 0.1 nM
Nanobody 262 (7E09-40GS-7C10) (VHH) EVQLVESGGGLVQAGGSLRLSCAASGRTFSSYIMGWFRQAPGKAREFVADITWGQRPYYADSVKGRFTISRDNAKNTVYLEMNSLKPEDTAVYYCAADLGVVIREEHAYWGQGTLVTVSSGGGGSGGGGSGGGGSGGGGSGGGGSGGGGSGGGGSGGGGSEVQLVESGGGLVQAGGSLRLSCTASGRTLSSYTMGWFRQAPGTEREFVAAMTRSGFNTYYADSVKGRFTISRDSTENTMALQMSSLKPEDTAVYYCTAGRGLTSYRADYWGQGTLVTVSS	48%	–
1E11-40GS-5E02 (VHH) EVQLVESGGGLVQPGGSLRLSCAASGSTRSVNPMAWFRQAPGRQREWVATISRSGYATYADSVKGRFTISGDNAKSSVYLQMNSLKPEDTAVYYCVTGTYWGQGTLVTVSSGGGGSGGGGSGGGGSGGGGSGGGGSGGGGSGGGGSGGGGSEVQLVESGGGLVQPGGSLRLSCAASGITLDSIAICWFRQAPGKEREGVSCSRGSDGSTYYADSVKGRFTISRVNAKNTVYLQMNSLKPEDTAVYYCAAAPSIFYSGGYFPSGMDYWGKGTQVTVSS	44%	–
Nanobody 234 (7C10-40GS-5H01) (VHH) EVQLVESGGGLVQAGGSLRLSCTASGRTLSSYTMGWFRQAPGTEREFVAAMTRSGFNTYYADSVKGRFTISRDSTENTMALQMSSLKPEDTAVYYCTAGRGLTSYRADYWGQGTLVTVSSGGGGSGGGGSGGGGSGGGGSGGGGSGGGGSGGGGSGGGGSEVQLVESGGGLVQPGGSLRLSCAASGSTLDYYAIGWFRQAPGKEREGVSCTSNSGSTYYGGSVKGRFTASRDNAKNTVYLQMNSLRPEDTAVYYCVATIGCATLGGTLDVQRYYYRGQGTLVTVSS	63%	–
1E11-40GS-14B10 (VHH) EVQLVESGGGLVQPGGSLRLSCAASGSTRSVNPMAWFRQAPGRQREWVATISRSGYATYADSVKGRFTISGDNAKSSVYLQMNSLKPEDTAVYYCVTGTYWGQGTLVTVSSGGGGSGGGGSGGGGSGGGGSGGGGSGGGGSGGGGSGGGGSEVQLVESGGGLVQPGGSLRLSCAASGRIFSINNMGWYHQAPGKQRELVATITMNGITTYADSVKGRFTISRDNAKNTVYLQMNSLKPEDTAVYYCSCWVRSSGGDPYRDYWGQGTQVTVSS	52%	–
